Residue numbers refer to the chain shown, from its start. Where two headings read alike, the source gives them in different places.
Columns and labels:
[1] = molecular target: T1, recombinant human TFPI (tissue factor pathway inhibitor) (human, UniProt P10646 29-304); experiment: cell-based or functional assay
[2] = molecular target: T1, recombinant human TFPI (tissue factor …); experiment: cell-based or functional assay; remark: listed apart in the source
[3] = molecular target: T1, recombinant human TFPI (tissue factor …); experiment: cell-based or functional assay; remark: listed apart in the source
[4] = molecular target: T1, recombinant human TFPI (tissue factor …); experiment: cell-based or functional assay; remark: listed apart in the source
[5] = molecular target: T1, recombinant human TFPI (tissue factor …); experiment: SPR, Biacore T-200; IgG captured on protein A (CM5), TFPI as analyte
Protocol: Dissociation of the TFPI associated with the antibody was induced by running 10 mM glycine-HCl (pH 1.5) at a flow rate for 30 seconds. The affinities in terms of kinetic rate constants (Kₒₙ and Koff) and equilibrium dissociation constant (KD) were evaluated using Biacore T-200 evaluation software, and the results are shown in Table 24 below.

[6] = molecular target: T1, recombinant human TFPI (tissue factor …); experiment: cell-based or functional assay; remark: listed apart in the source
[7] = molecular target: T1, recombinant human TFPI (tissue factor …); experiment: cell-based or functional assay; remark: listed apart in the source
[8] = molecular target: T1, recombinant human TFPI (tissue factor …); experiment: cell-based or functional assay; remark: listed apart in the source

B1: clone 3241 (antibody, V domains shown)
VH: EVQLVESGGGLVKPGGSLRLSCAASGFTFSSYAMNWVRQAPGKGLEWVSTITTGGSYTYYADSVEGRFTISRDNAKNSLYLQMNSLRAEDTAVYYCARQDGNFLMDYWGQGTLVTVSS
VL: DVVMTQTPLSLPVTLGQPASISCKSSQSLLDIDGKTYLNWLQQRPGQSPKRLIYLVSKLDSGVPDRFTGSGSGTDFTLKISRVEAEDVGVYYCWQGTHFPFTFGQGTKVEIKR
notes: scFv on yeast at selection; human IgG4/kappa IgG as purified; also called No. 3241 antibody
effect of inhibiting TFPI, FXa activity assay, Ab 10 nM [1]: ~83% | effect of inhibiting TFPI, FXa activity assay, Ab 20 nM [1]: ~82% | A405, TF/FVIIa/FX complex assay, Ab 1.56 nM [2]: 0.157 | A405, TF/FVIIa/FX complex assay, Ab 3.13 nM [2]: 0.171 | A405, TF/FVIIa/FX complex assay, Ab 6.25 nM [2]: 0.197 | A405, TF/FVIIa/FX complex assay, Ab 12.5 nM [2]: 0.305 | A405, TF/FVIIa/FX complex assay, Ab 25 nM [2]: 0.911 | A405, TF/FVIIa/FX complex assay, Ab 50 nM [2]: 0.935 | A405, TF/FVIIa/FX complex assay, Ab 100 nM [2]: 0.937 | % of Normalized, TF/FVIIa/FX complex assay, Ab 1.56 nM [3]: 17.2% | % of Normalized, TF/FVIIa/FX complex assay, Ab 3.13 nM [3]: 18.7% | % of Normalized, TF/FVIIa/FX complex assay, Ab 6.25 nM [3]: 21.5% | % of Normalized, TF/FVIIa/FX complex assay, Ab 12.5 nM [3]: 33.3% | % of Normalized, TF/FVIIa/FX complex assay, Ab 25 nM [3]: 99.6% | % of Normalized, TF/FVIIa/FX complex assay, Ab 50 nM [3]: 102% | % of Normalized, TF/FVIIa/FX complex assay, Ab 100 nM [3]: 102% | FXa assay % of FXa alone, 2.5 nM Ab, 10 nM TFPI [4]: 11.2% | FXa assay % of FXa alone, 5 nM Ab, 10 nM TFPI [4]: 50.9% | FXa assay OD, 2.5 nM Ab, 10 nM TFPI [4]: 0.091 | FXa assay OD, 5 nM Ab, 10 nM TFPI [4]: 0.413 | FXa assay OD, 10 nM Ab, 10 nM TFPI [4]: 0.677 | FXa assay OD, 20 nM Ab, 10 nM TFPI [4]: 0.665 | Kd [5]: 74 pM

B2: clone 12 (antibody, V domains shown)
VH: B1 VH with S49G, Y57H, N102H
VL: B1 VL with Q27P
notes: human IgG4/kappa IgG as purified; also called No. 12 antibody
effect of inhibiting TFPI, FXa activity assay, Ab 10 nM [1]: ~82% | effect of inhibiting TFPI, FXa activity assay, Ab 20 nM [1]: ~82% | A405, TF/FVIIa/FX complex assay, Ab 1.56 nM [6]: 0.041 | A405, TF/FVIIa/FX complex assay, Ab 3.13 nM [6]: 0.048 | A405, TF/FVIIa/FX complex assay, Ab 6.25 nM [6]: 0.067 | A405, TF/FVIIa/FX complex assay, Ab 12.5 nM [6]: 0.097 | A405, TF/FVIIa/FX complex assay, Ab 25 nM [6]: 0.489 | A405, TF/FVIIa/FX complex assay, Ab 50 nM [6]: 0.803 | A405, TF/FVIIa/FX complex assay, Ab 100 nM [6]: 0.847 | % of Normalized, TF/FVIIa/FX complex assay, Ab 1.56 nM [7]: 4.8% | % of Normalized, TF/FVIIa/FX complex assay, Ab 3.13 nM [7]: 5.6% | % of Normalized, TF/FVIIa/FX complex assay, Ab 6.25 nM [7]: 7.8% | % of Normalized, TF/FVIIa/FX complex assay, Ab 12.5 nM [7]: 11.4% | % of Normalized, TF/FVIIa/FX complex assay, Ab 25 nM [7]: 57.7% | % of Normalized, TF/FVIIa/FX complex assay, Ab 50 nM [7]: 94.6% | % of Normalized, TF/FVIIa/FX complex assay, Ab 100 nM [7]: 99.9% | FXa assay % of FXa alone, 2.5 nM Ab, 10 nM TFPI [8]: 7.4% | FXa assay % of FXa alone, 5 nM Ab, 10 nM TFPI [8]: 38.8% | FXa assay OD, 2.5 nM Ab, 10 nM TFPI [8]: 0.0615 | FXa assay OD, 5 nM Ab, 10 nM TFPI [8]: 0.321 | FXa assay OD, 10 nM Ab, 10 nM TFPI [8]: 0.68 | FXa assay OD, 20 nM Ab, 10 nM TFPI [8]: 0.678 | Kd [5]: 8.19 pM
